According to US9403896B2, “Serpin-finger fusion polypeptide” (Hoffmann-La Roche Inc., priority 2010, dated 2016):
Where two headings read alike, the source gives them in different places.

Legend:
HIV HR1 polypeptide = target: T1, HIV HR1 polypeptide (Human immunodeficiency virus type 1 group M subtype B, UniProt P04578); assay: biochemical; format: binding; conditions: for kon: read-out: ka
T1 construct: made in house; host or cells: chemical peptide synthesis (no expression host)
Procedure: All surface plasmon resonance measurements were performed on a BIAcore 3000 instrument (GE Healthcare Biosciences AB, Sweden) at 25° C. Chemically prepared HIV HR1 peptide (heptad repeat 1; Biotin-[…] Q-NH2 (SEQ ID NO: 87)) was immobilized on a CM5 biosensor chip according to the manufacturer instructions (GE Healthcare Biosciences AB, Sweden). The fusion polypeptide was diluted to a concentration of 25 nM and injected over 5 minutes at a flow rate of 50 μl/min. Thereafter the protein complex obtained from different combined fractions was diluted into the same buffer to concentrations of 250 nM and 80 nM and injected over 5 minutes at a flow rate of 50 μl/min. Afterwards the sensor chip was regenerated for 1 minute with PBS, pH 8.0, 0.005% (v/v) Tween 20. Data analysis was performed with the BIAevaluation software (BIAcore, Sweden) (see FIG. 4).

[1] = test system: HIV cell-cell-membrane fusion; assay: cell-cell-fusion-assay (CCF-assay), antiviral activity; format: cell-based
From the text: The amino acid sequence of fusion polypeptide FP-1 is SEQ ID NO: 76, the amino acid sequence of fusion polypeptide FP-2 is SEQ ID NO: 77, and the amino acid sequence of fusion polypeptide FP-3 is SEQ ID NO: 78. In the fusion polypeptides FP-1 to FP-3 the same serpin-finger polypeptide is conjugated to different HIV fusion inhibitor polypeptides. The fusion polypeptide FP-3 is expressed better in E. coli than FP-2 and in turn FP-2 is expressed better than the fusion polypeptide FP-1. The same sequence of the fusion polypeptides is obtained for the binding to target HIV HR-1 polypeptide (FP-3>FP-2>FP-1) in a BIAcore assay. The same sequence has also been found for the anti-viral activity in a cell-cell-fusion-assay (CCF-assay).

[2] = BIAcore 3000, 25° C., HR1 peptide immobilized on CM5 chip

T1 sequence (P04578 540-590): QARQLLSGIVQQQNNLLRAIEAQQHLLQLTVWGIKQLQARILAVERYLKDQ

## CC[C@H](C)[C@H](NC(=O)[C@H](CC(C)C)NC(=O)[C@H](CO)NC(=O)[C@H](Cc1c[nH]cn1)NC(=O)[C@@H](NC(=O)[C@H](CC(C)C)NC(=O)[C@H](CO)NC(=O)[C@@H](NC(=O)[C@H](Cc1ccc(O)cc1)NC(=O)[C@H](CC(N)=O)NC(=O)[C@H](CC(N)=O)NC(=O)[C@@H](NC(=O)[C@H](CCC(=O)O)NC(=O)[C@H](CCCNC(=N)N)NC(=O)[C@H](CC(=O)O)NC(=O)[C@H](Cc1c[nH]c2ccccc12)NC(=O)[C@H](CCC(=O)O)NC(=O)[C@H](CCSC)NC(=O)[C@H](Cc1c[nH]c2ccccc12)NC(=O)[C@@H](NC(=O)[C@@H](N)CCSC)[C@@H](C)O)[C@@H](C)CC)[C@@H](C)O)[C@@H](C)CC)C(=O)N[C@@H](CCC(=O)O)C(=O)N[C@@H](CCC(=O)O)C(=O)N[C@@H](CO)C(=O)N[C@@H](CCC(N)=O)C(=O)N[C@@H](CC(N)=O)C(=O)N[C@@H](CCC(N)=O)C(=O)N[C@@H](CCC(N)=O)C(=O)N[C@@H](CCC(=O)O)C(=O)N[C@@H](CCCCN)C(=O)N[C@@H](CC(N)=O)C(=O)N[C@@H](CCC(=O)O)C(=O)N[C@@H](CCC(N)=O)C(=O)N[C@@H](CCC(=O)O)C(=O)N[C@@H](CC(C)C)C(=O)N[C@@H](CC(C)C)C(=O)O [T-651, reference compound]
HIV HR1 polypeptide; [2]
  kon: 1.65e+06 M⁻¹ s⁻¹

## CC[C@H](C)[C@H](NC(=O)[C@H](CCC(N)=O)NC(=O)[C@H](C)NC(=O)[C@H](CCC(N)=O)NC(=O)[C@H](CCC(=O)O)NC(=O)[C@H](CC(C)C)NC(=O)[C@H](CC(C)C)NC(=O)[C@H](C)NC(=O)[C@@H](NC(=O)[C@@H](NC(=O)[C@H](CCCCN)NC(=O)[C@H](CCC(N)=O)NC(=O)[C@H](CCC(=O)O)NC(=O)[C@H](Cc1c[nH]c2ccccc12)NC(=O)[C@H](CCC(=O)O)NC(=O)[C@H](CCC(N)=O)NC(=O)[C@H](Cc1c[nH]c2ccccc12)NC(C)=O)[C@@H](C)CC)[C@@H](C)O)C(=O)N[C@@H](CCC(N)=O)C(=O)N[C@@H](CCC(N)=O)C(=O)N[C@@H](CCC(=O)O)C(=O)N[C@@H](CCCCN)C(=O)N[C@@H](CC(N)=O)C(=O)N[C@@H](CCC(=O)O)C(=O)N[C@@H](Cc1ccc(O)cc1)C(=O)N[C@@H](CCC(=O)O)C(=O)N[C@@H](CC(C)C)C(=O)N[C@@H](CCC(N)=O)C(=O)N[C@@H](CCCCN)C(=O)N[C@@H](CC(C)C)C(=O)N[C@@H](CC(=O)O)C(=O)N[C@@H](CCCCN)C(=O)N[C@@H](Cc1c[nH]c2ccccc12)C(=O)N[C@@H](C)C(=O)N[C@@H](CO)C(=O)N[C@@H](CC(C)C)C(=O)N[C@@H](Cc1c[nH]c2ccccc12)C(=O)N[C@@H](CCC(=O)O)C(=O)N[C@@H](Cc1c[nH]c2ccccc12)C(=O)N[C@@H](Cc1ccccc1)C(N)=O [T-1249, reference compound]
HIV HR1 polypeptide; [2]
  kd: 0.00127 s⁻¹

## CC[C@H](C)[C@H](NC(=O)[C@H](C)NC(=O)[C@H](CCCNC(=N)N)NC(=O)[C@H](CC(=O)O)NC(=O)[C@H](Cc1c[nH]c2ccccc12)NC(=O)[C@H](C)NC(=O)[C@H](CCC(=O)O)NC(=O)[C@H](Cc1c[nH]c2ccccc12)NC(=O)[C@@H](NC(=O)[C@@H](N)[C@@H](C)O)[C@@H](C)O)C(=O)N[C@@H](C)C(=O)N[C@@H](CCC(=O)O)C(=O)N[C@@H](Cc1ccc(O)cc1)C(=O)N[C@@H](C)C(=O)N[C@@H](C)C(=O)N[C@@H](CCCNC(=N)N)C(=O)N[C@H](C(=O)N[C@@H](CCC(=O)O)C(=O)N[C@@H](C)C(=O)N[C@@H](CC(C)C)C(=O)N[C@H](C(=O)N[C@@H](CCCNC(=N)N)C(=O)N[C@@H](C)C(=O)N[C@@H](C)C(=O)N[C@@H](CCC(N)=O)C(=O)N[C@@H](CCC(=O)O)C(=O)N[C@@H](CCC(N)=O)C(=O)N[C@@H](CCC(N)=O)C(=O)N[C@@H](CCC(=O)O)C(=O)N[C@@H](CCCCN)C(=O)N[C@@H](CC(N)=O)C(=O)N[C@@H](CCC(=O)O)C(=O)N[C@@H](C)C(=O)N[C@@H](C)C(=O)N[C@@H](CC(C)C)C(=O)N[C@@H](CCCNC(=N)N)C(=O)N[C@@H](CCC(=O)O)C(=O)N[C@@H](CC(C)C)C(=O)O)[C@@H](C)CC)[C@@H](C)CC [T-2635, reference compound]
HIV HR1 polypeptide
  kon: 1.11e+06 M⁻¹ s⁻¹

## FP-2: SEQ ID NO: 77=GR+SEQ ID NO: 82+SEQ ID NO: 75+SEQ ID NO: 13; serpin-finger, linker, T-651 (GRGTEAAGAMFLEAIPMSTTWMEWDKEINNYTSLIHSLIEESQNQQEKNEQELL)
HIV HR1 polypeptide
  KA: 1.08e+10 M⁻¹
  Kd: 0.0924 nM
  ka: 1.29e+06 M⁻¹ s⁻¹
  kd: 0.000119 s⁻¹
[1]
  IC50: 330 nM

B1: FP-1: SEQ ID NO: 76=GR+SEQ ID NO: 05+SEQ ID NO: 52+SEQ ID NO: 37; serpin-finger, linker, T-1249 (protein)
chain: GRTEAAGAMFLEAIPMSGGGGSGGGGSGGGGTWQEWEQKITALLEQAQIQQEKNEYELQKLDKWASLWEWF
HIV HR1 polypeptide
  KA: 6.29e+08 M⁻¹
  Kd: 1.59 nM
  ka: 227000 M⁻¹ s⁻¹
  kd: 0.000361 s⁻¹
[1]
  IC50: 700 nM

B2: FP-3: SEQ ID NO: 78=GR+SEQ ID NO: 83+SEQ ID NO: 50+SEQ ID NO: 40; serpin-finger, linker, T-2635 (protein)
chain: GKSGTEAAGAMFLEAIPMSGGGGSGGGGSGGGGTTWEAWDRAIAEYAARIEALIRAAQEQQERNEAALREL
HIV HR1 polypeptide
  KA: 3.22e+10 M⁻¹
  Kd: 0.031 nM
  ka: 991000 M⁻¹ s⁻¹
  kd: 3.07e-05 s⁻¹
[1]
  IC50: 200 nM
